No end group written: not given here.
Tests used:
[1] = target: HIV-1 BaL virions (virion-associated envelope gp120, stock grown in primary CD4+ T cells) (HIV-1 BaL); assay: cell-based or functional assay
[2] = target: recombinant soluble gp120 (isolate YU2) (HIV-1 isolate YU2), P35961; assay: SPR; biotinylated pV2α (235 RU) on neutravidin-coated CM3 chip, gp120 YU2 in solution at 2, 4, 8 and 16 nM; koff-KD distribution model
[3] = target: recombinant soluble CD4 (number of domains not stated), P01730; assay: SPR; biotinylated pV2α (235 RU) on neutravidin-coated CM3 chip, recombinant soluble CD4 in solution; koff-KD distribution model

| Binder | IC50 of inhibition of acute infection of primary human CD4+ T cells by HIV-1 BaL [1] [µM] | Kd [2] [nM] | koff [2] [s⁻¹] | Kd [3] [mM] | koff [3] [s⁻¹] |
| --- | --- | --- | --- | --- | --- |
| KVQKEYALFYELDIVPID (modifications not checked) [peptide pV2α-Tys (tyrosine-sulfated variant of peptide pV2α)] | 15 |  |  |  |  |
| KVQKEYALFYELDIVPID (not fully specified) [biotinylated peptide pV2α (captured on neutravidin chip or biotin-captured in ELISA)] |  | 0.9 | 6.4e-05 | 4 | 0.013 |

— patent US20150313990A1
